Results as given in patent US20260284219A1, “ANTIBODY CONJUGATE, AND USES THEREOF” (Acepodia Biotechnologies, Ltd., priority 2024, published 2026).

What was measured:
[1] = tested on: human triple-negative breast cancer MDA-MB-231 cells; experiment: Cytotoxicity assay (CellTiter-Glo 2.0), MDA-MB-231; assay type: cell-based; settings: for cancer cells killed compared with atezolizumab: MDA-MB-231, 6 days, FIG. 6B; for cytotoxicity against MDA-MB-231: atezolizumab conjugates, 0.01-500 nM for 6 days
Description: Each condition was performed in triplicate. On the harvesting day, the number of viable cells in each well were measured according to the CellTiter-Glo™ 2.0 Assay process.

[2] = target: His-tagged human PDL1 recombinant protein (Homo sapiens, UniProt Q9NZQ7); experiment: Binding affinity ELISA on plates coated with PDL1; settings: for EC50: N = 3; for EC50 of the conjugate relative to EC50 of atezolizumab: PDL1 binding; for PDL1 binding signal compared with atezolizumab: among the concentration range, signal at 450 nm
Description: The blocked His-tagged human PDL1 recombinant protein-coated white plate was then incubated with atezolizumab, atezolizumab-govitecan (DAR10), or the isotype control antibody at different concentrations at 37° C. for 1 hour. The unbound atezolizumab, atezolizumab-govitecan (DAR10), or the isotype control antibody was washed away with PBST.
The blocked His-tagged human PDL1 recombinant protein-coated white plate was then incubated with atezolizumab or atezolizumab-deruxtecan-vcMMAE (DAR 10) at different concentrations at 37° C. for 1 hour. The unbound atezolizumab or atezolizumab-deruxtecan-vcMMAE (DAR 10) was washed away with PBST.

[3] = Aggregation by size exclusion chromatography HPLC (SEC-HPLC); assay type: physicochemical; settings: SEC-HPLC of DAR10 dual-payload antibody drug conjugates

His-tagged human PDL1 recombinant protein, sequence (Q9NZQ7 19-290): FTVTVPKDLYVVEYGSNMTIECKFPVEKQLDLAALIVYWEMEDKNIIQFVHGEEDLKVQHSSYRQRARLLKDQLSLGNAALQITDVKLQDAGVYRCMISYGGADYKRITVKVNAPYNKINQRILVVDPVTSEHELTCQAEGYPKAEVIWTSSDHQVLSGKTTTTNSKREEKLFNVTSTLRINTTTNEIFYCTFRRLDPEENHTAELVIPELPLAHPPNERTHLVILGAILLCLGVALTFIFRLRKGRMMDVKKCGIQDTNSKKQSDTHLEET

atezolizumab-govitecan (DAR8): Atezolizumab with 8 govitecan conjugated to cysteines by procedure (A) only (DAR8)
cancer cells killed compared with atezolizumab [1]: 25%

atezolizumab: commercially available anti-PDL1 IgG1 antibody (DAR0) [reference compound]
EC50 ([2]; Embodiment 1-3, FIG. 5): 0.55 nM
EC50 ([2]; Embodiment 2-3, FIG. 9): 1.4 nM

atezolizumab-govitecan (DAR10): Atezolizumab with 8 govitecan on light and heavy chain cysteines and 2 govitecan on light-chain lysines (DAR10)
EC50 ([2]; Embodiment 1-3, FIG. 5): 0.75 nM
EC50 of the conjugate relative to EC50 of atezolizumab [2]: less than 2 times
PDL1 binding signal compared with atezolizumab [2]: no significant difference of signal detection
protein aggregation [3]: resistant to protein aggregation
cancer cells killed compared with atezolizumab [1]: 50%
cytotoxicity against MDA-MB-231 [1]: better cytotoxicity
cytotoxicity against MDA-MB-231 ([1]; listed as PDP-PDL1 mab-govitecan): exhibits cytotoxicity

atezolizumab-deruxtecan-vcMMAE (DAR 10): Atezolizumab with 8 deruxtecan on cysteines and 2 vcMMAE on light-chain lysines (DAR10)
EC50 ([2]; Embodiment 2-3, FIG. 9): 1.56 nM
EC50 of the conjugate relative to EC50 of atezolizumab [2]: less than 2 times
PDL1 binding signal compared with atezolizumab [2]: no significant difference of signal detection
protein aggregation [3]: resistant to protein aggregation
cytotoxicity against MDA-MB-231 [1]: better cytotoxicity
